We go through two molecules from article PMC11428423 (2024).

Test [1] has as its target T1, MT-C34 peptide conjugated to bovine serum albumin (BSA-MT-C34 conjugate) (HIV-1, covalently conjugated to bovine serum albumin by the sulfo-SMCC linker).
T1 chain: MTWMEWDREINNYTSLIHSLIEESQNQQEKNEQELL
Description: ELISA; replicate mAb-3, slope x 10^-8 M. For orientation: ELISA stands for enzyme-linked immunosorbent assay.

The target in test [2] is T1, MT-C34 peptide conjugated to bovine …. Nature of the test: ELISA; replicate chAb-1, slope x 10^-8 M.

B1: C24-6 mouse monoclonal antibody against the MT-C34 peptide (mAb) (antibody, V domains shown)
VH: EVQLVESGGDLVKPGGSLKLSCAASGFTFSRFGMSWGRQTPDKRLEWVATISTGGSYTYYPDSVKGRFTISRDNAKNSLYLQMSSLKSEDTAMYYCARHDDTAVYAMDYWGQGTSVTVSS
VL: DVVMTQTPLSLPVSLGDQASISCRSSQSLVHSDGDTYLHWYLQKPGQSPKLLIYKVSNRFSGVPDRFSGSGSGTDFTLKISRAEAEDLGVYFCSQSTHVPLTFGAGTKLELK
With B1, the dissociation constant (Kd) in test [1] is 2.26 nM.

B2: human chimeric anti-MT-C34 antibody (chAb) (antibody, V domains shown)
VH: B1 VH
VL: B1 VL
Regarding B2, in test [2], binding was characterised by a dissociation constant (Kd) of 1.14 nM.

As a reminder, the Kd is a measure of binding affinity in units of concentration.
